Results on 10 molecules are retold here after patent US20220177594A1 (ZOETIS SERVICES, published 2022).

The Kd is the free concentration of one partner at which half of the binding sites on the other are occupied at equilibrium, for simple one-to-one binding. Broadly, the koff is a measure of how fast the partners let go of each other. Usually kon stands for the rate constant with which the complex forms.

The labels stand for the following.
B1: Mu_19F07_VH (SEQ ID NO: 47)_S56A (antibody, V domains shown)
VH: EVKLVESEGGLVQPGSSMKLSCTASGFTFSDYYMAWVRQVPEKGLEWVANINYDGASTYYLDSLKSRFIISRDNAKNILYLQMSSLKSEDTATYYCARGLTWDFDVWGTGTTVTVSS
VL: DIVMTQSHKFMSPSVGDRVSITCKASQDVDTAVAWYQQKPGQSPKLLIYLASTRHTGVPDRFTGSGSGTDFTLTISNVQSEDLADYFCQQYSRFPLTFGAGTKLELKR
B2: Mu_19F07_VH (SEQ ID NO: 47)_Y60A (antibody, V domains shown)
VH: EVKLVESEGGLVQPGSSMKLSCTASGFTFSDYYMAWVRQVPEKGLEWVANINYDGSSTYALDSLKSRFIISRDNAKNILYLQMSSLKSEDTATYYCARGLTWDFDVWGTGTTVTVSS
VL: DIVMTQSHKFMSPSVGDRVSITCKASQDVDTAVAWYQQKPGQSPKLLIYLASTRHTGVPDRFTGSGSGTDFTLTISNVQSEDLADYFCQQYSRFPLTFGAGTKLELKR
B3: Mu_19F07_VL (SEQ ID NO: 49)_L50A (antibody, V domains shown)
VH: EVKLVESEGGLVQPGSSMKLSCTASGFTFSDYYMAWVRQVPEKGLEWVANINYDGSSTYYLDSLKSRFIISRDNAKNILYLQMSSLKSEDTATYYCARGLTWDFDVWGTGTTVTVSS
VL: DIVMTQSHKFMSPSVGDRVSITCKASQDVDTAVAWYQQKPGQSPKLLIYAASTRHTGVPDRFTGSGSGTDFTLTISNVQSEDLADYFCQQYSRFPLTFGAGTKLELKR
B4: Mu_19F07_VH (SEQ ID NO: 47)_F104A (antibody, V domains shown)
VH: EVKLVESEGGLVQPGSSMKLSCTASGFTFSDYYMAWVRQVPEKGLEWVANINYDGSSTYYLDSLKSRFIISRDNAKNILYLQMSSLKSEDTATYYCARGLTWDADVWGTGTTVTVSS
VL: DIVMTQSHKFMSPSVGDRVSITCKASQDVDTAVAWYQQKPGQSPKLLIYLASTRHTGVPDRFTGSGSGTDFTLTISNVQSEDLADYFCQQYSRFPLTFGAGTKLELKR
B5: Mu_19F07_VL (SEQ ID NO: 49)_Q90A (antibody, V domains shown)
VH: EVKLVESEGGLVQPGSSMKLSCTASGFTFSDYYMAWVRQVPEKGLEWVANINYDGSSTYYLDSLKSRFIISRDNAKNILYLQMSSLKSEDTATYYCARGLTWDFDVWGTGTTVTVSS
VL: DIVMTQSHKFMSPSVGDRVSITCKASQDVDTAVAWYQQKPGQSPKLLIYLASTRHTGVPDRFTGSGSGTDFTLTISNVQSEDLADYFCQAYSRFPLTFGAGTKLELKR
B6: Mu_19F07_VL (SEQ ID NO: 49)_Q89A (antibody, V domains shown)
VH: EVKLVESEGGLVQPGSSMKLSCTASGFTFSDYYMAWVRQVPEKGLEWVANINYDGSSTYYLDSLKSRFIISRDNAKNILYLQMSSLKSEDTATYYCARGLTWDFDVWGTGTTVTVSS
VL: DIVMTQSHKFMSPSVGDRVSITCKASQDVDTAVAWYQQKPGQSPKLLIYLASTRHTGVPDRFTGSGSGTDFTLTISNVQSEDLADYFCAQYSRFPLTFGAGTKLELKR
B7: Mu_19F07_VH (SEQ ID NO: 47)_W102A (antibody, V domains shown)
VH: EVKLVESEGGLVQPGSSMKLSCTASGFTFSDYYMAWVRQVPEKGLEWVANINYDGSSTYYLDSLKSRFIISRDNAKNILYLQMSSLKSEDTATYYCARGLTADFDVWGTGTTVTVSS
VL: DIVMTQSHKFMSPSVGDRVSITCKASQDVDTAVAWYQQKPGQSPKLLIYLASTRHTGVPDRFTGSGSGTDFTLTISNVQSEDLADYFCQQYSRFPLTFGAGTKLELKR
B8: Mu_19F07_VH (SEQ ID NO: 47)_Y59A (antibody, V domains shown)
VH: EVKLVESEGGLVQPGSSMKLSCTASGFTFSDYYMAWVRQVPEKGLEWVANINYDGSSTAYLDSLKSRFIISRDNAKNILYLQMSSLKSEDTATYYCARGLTWDFDVWGTGTTVTVSS
VL: DIVMTQSHKFMSPSVGDRVSITCKASQDVDTAVAWYQQKPGQSPKLLIYLASTRHTGVPDRFTGSGSGTDFTLTISNVQSEDLADYFCQQYSRFPLTFGAGTKLELKR
B9: Mu_19F07_VL (SEQ ID NO: 49)_T53A (antibody, V domains shown)
VH: EVKLVESEGGLVQPGSSMKLSCTASGFTFSDYYMAWVRQVPEKGLEWVANINYDGSSTYYLDSLKSRFIISRDNAKNILYLQMSSLKSEDTATYYCARGLTWDFDVWGTGTTVTVSS
VL: DIVMTQSHKFMSPSVGDRVSITCKASQDVDTAVAWYQQKPGQSPKLLIYLASARHTGVPDRFTGSGSGTDFTLTISNVQSEDLADYFCQQYSRFPLTFGAGTKLELKR
B10: Mu_19F07_VL (SEQ ID NO: 49)_F94A (antibody, V domains shown)
VH: EVKLVESEGGLVQPGSSMKLSCTASGFTFSDYYMAWVRQVPEKGLEWVANINYDGSSTYYLDSLKSRFIISRDNAKNILYLQMSSLKSEDTATYYCARGLTWDFDVWGTGTTVTVSS
VL: DIVMTQSHKFMSPSVGDRVSITCKASQDVDTAVAWYQQKPGQSPKLLIYLASTRHTGVPDRFTGSGSGTDFTLTISNVQSEDLADYFCQQYSRAPLTFGAGTKLELKR

The experiment concerns the target T1, ANTIBODY EXPRESSION CONTROL.
T1 construct: also called mouse anti-canine antibody (capture reagent of the expression control ELISA)
The experiment is described as follows: SPR Biacore, expression control. As for the experimental part:
The affinity with which candidate mAbs bind canine, feline, and human (SEQ ID NO: 122; Human_OSMR) (R&D Systems, Minneapolis, Minn.) OSMR was determined using surface plasmon resonance (SPR) on a Biacore system (Biacore Life Sciences (GE Healthcare), Uppsala, Sweden). To avoid affinity differences associated with differential surface preparation that can occur when immobilizing antibodies to surfaces; OSMR from each species was directly conjugated to individual surfaces. Immobilization was obtained by amine coupling 5 μg/mL OSMR using N-hydroxysuccinimide (NHS)/1-Ethyl-3-(3-dimethylaminopropyl) carbodiimide (EDC) chemistry. Chips were quenched with ethanolamine and the affinity with which all candidate mAbs bound to the immobilized OSMR was evaluated. All curves were fit to a 1:1 model. […] Results for affinity measurements are described herein.
Data from an ELISA represents an equilibrium state where the antibody is allowed to associate and dissociate over a one-hour period resulting in steady-state binding. Using Biacore, the target protein is immobilized to a surface and the antibody is passed over this surface in a mobile liquid phase. Protein-protein interaction is determined from changes in the surface resonance which allows for calculation of association (kₐ), disassociation (kd), and affinity constant (KD). While not wishing to be bound to one hypothesis we present data from ELISA and Biacore experiments, using the same preparation of antibody, that may result in agreement between the two methods with respect to binding but also may show contradictory results due to the nature of the binding kinetics and different assay dynamics. The data presented in Table A (in combination with experimental results from yeast display mutational analysis in Example 21) allow for the definition of a structure:function relationship to be defined between the anti-OSMR antibodies described here and their ability to bind and block IL-31 and OSM-mediated signaling through the OSMR receptor.
For orientation: Surface plasmon resonance follows binding to a sensor surface in real time, without labels.
Regarding B1, the Kd came to 4.08 nM, the koff is 0.000646 s⁻¹ and the kon came to 159000 M⁻¹ s⁻¹.
As to B2, the Kd turned out to be 4.06 nM, the koff was 0.00061 s⁻¹ and the kon is 150000 M⁻¹ s⁻¹.
With B3, the Kd turned out to be 0.164 nM, the koff was found to be 4.8e-05 s⁻¹ and the kon was 293000 M⁻¹ s⁻¹.
B4: the Kd turned out to be 0.156 nM, the koff was 5.09e-05 s⁻¹ and the kon was found to be 326000 M⁻¹ s⁻¹.
In the case of B5, the Kd is 0.161 nM, the off-rate (koff) worked out at 5.29e-05 s⁻¹ and the kon was found to be 329000 M⁻¹ s⁻¹.
B6: the Kd is 0.135 nM, the koff came to 4.3e-05 s⁻¹ and the kon turned out to be 319000 M⁻¹ s⁻¹.
On to B7, for which the Kd turned out to be 0.139 nM, the koff is 4.35e-05 s⁻¹ and the kon came out at 312000 M⁻¹ s⁻¹.
On to B8, for which the Kd is 0.359 nM, the dissociation rate constant (koff) turned out to be 0.000116 s⁻¹ and the kon is 324000 M⁻¹ s⁻¹.
As to B9, the Kd was found to be 0.123 nM, the koff came out at 3.75e-05 s⁻¹ and the kon turned out to be 305000 M⁻¹ s⁻¹.
For B10, the Kd amounted to 0.16 nM, the koff was 5.35e-05 s⁻¹ and the kon is 335000 M⁻¹ s⁻¹.
